Source: paper PMC7481185

Molecular target: enolase (AP-MS) (Arabidopsis thaliana) (UniProt P25696)
Sequence of UniProt P25696 (P25696 whole entry): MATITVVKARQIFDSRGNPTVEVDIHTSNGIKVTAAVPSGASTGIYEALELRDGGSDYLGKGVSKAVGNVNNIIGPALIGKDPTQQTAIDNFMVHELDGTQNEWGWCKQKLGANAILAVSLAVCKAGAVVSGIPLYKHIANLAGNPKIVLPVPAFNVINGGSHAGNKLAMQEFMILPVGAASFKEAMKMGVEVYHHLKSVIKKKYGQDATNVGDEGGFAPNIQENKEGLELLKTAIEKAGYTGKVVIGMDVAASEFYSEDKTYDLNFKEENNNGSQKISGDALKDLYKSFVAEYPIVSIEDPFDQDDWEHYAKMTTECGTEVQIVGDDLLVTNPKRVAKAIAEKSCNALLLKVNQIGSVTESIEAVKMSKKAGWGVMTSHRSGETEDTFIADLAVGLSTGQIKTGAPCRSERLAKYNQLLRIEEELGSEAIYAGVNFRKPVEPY

Q: “phosphoglycerate mutase 1 (AP-MS) (enzyme)” was tested. Which efficiency (Kcat/KM) of the conversion of 3PGA to pyruvate, NADH-coupled assay: isolated mitochondria (complex) against total extra-plastidial extract (free enzymes) did it give?
A: The efficiency (Kcat/KM) of the conversion of 3PGA to pyruvate, NADH-coupled assay: isolated mitochondria (complex) against total extra-plastidial extract (free enzymes) was 19 times.
